Among the data in ChEMBL document CHEMBL1156468, “Crystal structures of Saccharomyces cerevisiae N-myristoyltransferase with bound myristoyl-CoA and inhibitors reveal the functional roles of the N-terminal region” (J Biol Chem, 2007) are Km, kcat and kcat/Km values, retold here.

Substrate in data set [1]: CC(C)C[C@H](NC(=O)CN)C(=O)N[C@@H](Cc1ccccc1)C(=O)N[C@@H](C)C(=O)N[C@@H](CO)C(=O)N[C@@H](CCCCN)C(=O)N[C@@H](CC(C)C)C(=O)N[C@@H](Cc1ccccc1)C(=O)O
Briefly: Activity of Saccharomyces cerevisiae NMT D22A mutant assessed as production of coenzyme A after 1 hr.

Substrate in data set [2]: CC(C)C[C@H](NC(=O)CN)C(=O)N[C@@H](Cc1ccccc1)C(=O)N[C@@H](C)C(=O)N[C@@H](CO)C(=O)N[C@@H](CCCCN)C(=O)N[C@@H](CC(C)C)C(=O)N[C@@H](Cc1ccccc1)C(=O)O
Briefly: Ratio of kcat to Km for Saccharomyces cerevisiae NMT D22A mutant.

Substrate in data set [3]: CC(C)C[C@H](NC(=O)CN)C(=O)N[C@@H](Cc1ccccc1)C(=O)N[C@@H](C)C(=O)N[C@@H](CO)C(=O)N[C@@H](CCCCN)C(=O)N[C@@H](CC(C)C)C(=O)N[C@@H](Cc1ccccc1)C(=O)O
Kind of data set: Ratio of kcat to Km for Saccharomyces cerevisiae NMT D108K mutant.

Substrate in data set [4]: CC(C)C[C@H](NC(=O)CN)C(=O)N[C@@H](Cc1ccccc1)C(=O)N[C@@H](C)C(=O)N[C@@H](CO)C(=O)N[C@@H](CCCCN)C(=O)N[C@@H](CC(C)C)C(=O)N[C@@H](Cc1ccccc1)C(=O)O
Kind of data set: Activity of Saccharomyces cerevisiae NMT D108K mutant assessed as production of coenzyme A after 1 hr.

Substrate in data set [5]: CC(C)C[C@H](NC(=O)CN)C(=O)N[C@@H](Cc1ccccc1)C(=O)N[C@@H](C)C(=O)N[C@@H](CO)C(=O)N[C@@H](CCCCN)C(=O)N[C@@H](CC(C)C)C(=O)N[C@@H](Cc1ccccc1)C(=O)O
Briefly: Activity of Saccharomyces cerevisiae NMT D23K mutant assessed as production of coenzyme A after 1 hr.

Substrate in data set [6]: CC(C)C[C@H](NC(=O)CN)C(=O)N[C@@H](Cc1ccccc1)C(=O)N[C@@H](C)C(=O)N[C@@H](CO)C(=O)N[C@@H](CCCCN)C(=O)N[C@@H](CC(C)C)C(=O)N[C@@H](Cc1ccccc1)C(=O)O
Kind of data set: Ratio of kcat to Km for Saccharomyces cerevisiae NMT D23K mutant.

Substrate in data set [7]: CC(C)C[C@H](NC(=O)CN)C(=O)N[C@@H](Cc1ccccc1)C(=O)N[C@@H](C)C(=O)N[C@@H](CO)C(=O)N[C@@H](CCCCN)C(=O)N[C@@H](CC(C)C)C(=O)N[C@@H](Cc1ccccc1)C(=O)O
Kind of data set: Ratio of kcat to Km for Saccharomyces cerevisiae NMT D22K mutant.

Substrate in data set [8]: CC(C)C[C@H](NC(=O)CN)C(=O)N[C@@H](Cc1ccccc1)C(=O)N[C@@H](C)C(=O)N[C@@H](CO)C(=O)N[C@@H](CCCCN)C(=O)N[C@@H](CC(C)C)C(=O)N[C@@H](Cc1ccccc1)C(=O)O
Kind of data set: Activity of Saccharomyces cerevisiae NMT D22K mutant assessed as production of coenzyme A after 1 hr.

Substrate in data set [9]: CC(C)C[C@H](NC(=O)CN)C(=O)N[C@@H](Cc1ccccc1)C(=O)N[C@@H](C)C(=O)N[C@@H](CO)C(=O)N[C@@H](CCCCN)C(=O)N[C@@H](CC(C)C)C(=O)N[C@@H](Cc1ccccc1)C(=O)O
Briefly: Ratio of kcat to Km for Saccharomyces cerevisiae NMT D23A mutant.

Substrate in data set [10]: CC(C)C[C@H](NC(=O)CN)C(=O)N[C@@H](Cc1ccccc1)C(=O)N[C@@H](C)C(=O)N[C@@H](CO)C(=O)N[C@@H](CCCCN)C(=O)N[C@@H](CC(C)C)C(=O)N[C@@H](Cc1ccccc1)C(=O)O
Kind of data set: Activity of Saccharomyces cerevisiae NMT D23A mutant assessed as production of coenzyme A after 1 hr.

Substrate in data set [11]: CC(C)C[C@H](NC(=O)CN)C(=O)N[C@@H](Cc1ccccc1)C(=O)N[C@@H](C)C(=O)N[C@@H](CO)C(=O)N[C@@H](CCCCN)C(=O)N[C@@H](CC(C)C)C(=O)N[C@@H](Cc1ccccc1)C(=O)O
Kind of data set: Activity of Saccharomyces cerevisiae NMT D108A mutant assessed as production of coenzyme A after 1 hr.

Substrate in data set [12]: CC(C)C[C@H](NC(=O)CN)C(=O)N[C@@H](Cc1ccccc1)C(=O)N[C@@H](C)C(=O)N[C@@H](CO)C(=O)N[C@@H](CCCCN)C(=O)N[C@@H](CC(C)C)C(=O)N[C@@H](Cc1ccccc1)C(=O)O
Briefly: Ratio of kcat to Km for Saccharomyces cerevisiae NMT D108A mutant.

Substrate in data set [13]: CC(C)C[C@H](NC(=O)CN)C(=O)N[C@@H](Cc1ccccc1)C(=O)N[C@@H](C)C(=O)N[C@@H](CO)C(=O)N[C@@H](CCCCN)C(=O)N[C@@H](CC(C)C)C(=O)N[C@@H](Cc1ccccc1)C(=O)O
Briefly: Ratio of kcat to Km for Saccharomyces cerevisiae NMT T24D mutant.

Substrate in data set [14]: CC(C)C[C@H](NC(=O)CN)C(=O)N[C@@H](Cc1ccccc1)C(=O)N[C@@H](C)C(=O)N[C@@H](CO)C(=O)N[C@@H](CCCCN)C(=O)N[C@@H](CC(C)C)C(=O)N[C@@H](Cc1ccccc1)C(=O)O
Briefly: Activity of Saccharomyces cerevisiae NMT T24D mutant assessed as production of coenzyme A after 1 hr.

Numbering of substitutions follows the chain as printed. Names and notes keep the numbering of the source.

B1: Glycylpeptide N-tetradecanoyltransferase (Saccharomyces cerevisiae S288c), P14743 D22A (protein)
chain: MSEEDKAKKLENLLKLLQLNNADTSKFTQEQKKAMKDHKFWRTQPVKDFDEKVVEEGPIDKPKTPEDISDKPLPLLSSFEWCSIDVDNKKQLEDVFVLLNENYVEDRDAGFRFNYTKEFFNWALKSPGWKKDWHIGVRVKETQKLVAFISAIPVTLGVRGKQVPSVEINFLCVHKQLRSKRLTPVLIKEITRRVNKCDIWHALYTAGIVLPAPVSTCRYTHRPLNWKKLYEVDFTGLPDGHTEEDMIAENALPAKTKTAGLRKLKKEDIDQVFELFKRYQSRFELIQIFTKEEFEHNFIGEESLPLDKQVIFSYVVEQPDGKITDFFSFYSLPFTILNNTKYKDLGIGYLYYYATDADFQFKDRFDPKATKALKTRLCELIYDACILAKNANMDVFNALTSQDNTLFLDDLKFGPGDGFLNFYLFNYRAKPITGGLNPDNSNDIKRRSNVGVVML
Broadly, the Km is the concentration of substrate that gives half-maximal velocity. Usually kcat stands for the number of substrate molecules converted per active site and unit of time at saturation. As to B1, in data set [1], the Km worked out at 19 µM and the kcat came to 1.72 s⁻¹. Further, the kcat/Km in data set [2] amounted to 9.03 ×10⁴ /M/s.

B2: Glycylpeptide N-tetradecanoyltransferase (Saccharomyces cerevisiae S288c), P14743 D108K (protein)
chain: B1 chain with A22D, D108K
Consider B2, for which the kcat/Km in [3] stood at 1.4 ×10⁵ /M/s. Besides, in data set [4], the Michaelis constant (Km) came to 13.9 µM and the kcat was 1.94 s⁻¹.

B3: Glycylpeptide N-tetradecanoyltransferase (Saccharomyces cerevisiae S288c), P14743 D23K (protein)
chain: B1 chain with A22D, D23K
For B3, in data set [5], the Km was found to be 50.2 µM and the kcat turned out to be 3.64 s⁻¹. Further, the kcat/Km in data set [6] stood at 7.26 ×10⁴ /M/s.

B4: Glycylpeptide N-tetradecanoyltransferase (Saccharomyces cerevisiae S288c), P14743 D22K (protein)
chain: B1 chain with A22K
As for B4, in data set [7], the kcat/Km stood at 1.05 ×10⁵ /M/s. Also, in data set [8], the Km is 23.8 µM and the kcat was 2.5 s⁻¹.

B5: Glycylpeptide N-tetradecanoyltransferase (Saccharomyces cerevisiae S288c), P14743 D23A (protein)
chain: B1 chain with A22D, D23A
For B5, the kcat/Km in data set [9] is 1.27 ×10⁵ /M/s. In data set [10], the Km is 21.4 µM and the kcat was 2.71 s⁻¹.

B6: Glycylpeptide N-tetradecanoyltransferase (Saccharomyces cerevisiae S288c), P14743 D108A (protein)
chain: B1 chain with A22D, D108A
Take B6: in data set [11], the Km came out at 7.89 µM and the kcat came out at 1.94 s⁻¹. Besides, the kcat/Km in [12] was found to be 2.45 ×10⁵ /M/s.

B7: Glycylpeptide N-tetradecanoyltransferase (Saccharomyces cerevisiae S288c), P14743 T24D (protein)
chain: B1 chain with A22D, T24D
Turning to B7, the kcat/Km in [13] was 6.67 ×10⁴ /M/s. In [14], the Km stood at 41.6 µM and the kcat was found to be 2.77 s⁻¹.
